Data from patent publication US20220143196A1 (ARIZONA BOARD OF REGENTS ON BEHALF OF THE UNIVERSITY OF …, published 2022).

B1: camptothecin (CPT)-MT-II conjugate (1) (peptide)
peptide: CXLDHFRWK
modifications: not fully specified; Cys 1 thiol joined by a disulfide to a 2-thioethyl carbonate linker carrying camptothecin; 6-aminohexanoic acid (6-Ahx) at 2; Nle at 3; D-Phe at 6; lactam cyclization between Asp 4 and Lys 9 side chains; C-terminal amide; no N-terminal acetyl on Nle (replaced by the Cys-6-Ahx spacer)
notes: also called CPT-MT-II (1); camptothecin-MT-II (1)
B2: fluorescein-MT-II conjugate (2) (peptide)
peptide: CXLDHFRWK
modifications: not fully specified; Cys 1 thiol joined by a disulfide to a 2-thioethyl carbonate linker carrying fluorescein; 6-aminohexanoic acid (6-Ahx) at 2; Nle at 3; D-Phe at 6; lactam cyclization between Asp 4 and Lys 9 side chains; C-terminal amide; no N-terminal acetyl on Nle (replaced by the Cys-6-Ahx spacer)
notes: also called fluorescein-MT-II (2); compound 2

Tests used:
[1] = molecular target: T1, human melanocortin 1 receptor (MC1R) (human, UniProt Q01726 1-317); assay: competitive binding vs 125I-NDP-α-MSH on whole HEK293 cells overexpressing human MC1R
T1 construct: whole, on cells; also called MC1 receptor
Procedure: (§1) Competitive binding assays were performed on whole cells. Stably transfected HEK293 cell lines overexpressing human MC1R, MC3R, MC4R or MC5R were seeded on 96-well plates 48 h before the assay and grown to 100,000 cells per well. For the assay, the medium was removed, and cells were washed twice with a binding buffer containing minimum essential medium with Earle's salt (MEM, GIBCO), 25 mM HEPES (pH 7.4), 0.2% bovine serum albumin, 1 mM 1,10-phenanthrolone, 0.5 mg/L leupeptin and 200 mg/L bacitracin. […] The medium was subsequently removed, and the cells were washed twice with the binding buffer. The cells were lysed by 50 μL of 0.1 mM NaOH and 50 μL of 1% Triton X-100. The plates were left dry overnight under the hood, and 50 μL of scintillation fluid (OptiPhase SuperMix, PerkinElmer) were added in each well. The radioactivity was measured using MicroBeta 2 microplate counter (PerkinElmer). Data were analyzed using Graphpad Prism 6 (Graphpad Software, San Diego, Calif.).

human MC3R = molecular target: T2, human MC3R (human, UniProt P41968 1-323); assay: competitive binding vs 125I-NDP-α-MSH on whole HEK293 cells overexpressing human MC3R
T2 construct: whole, on cells
Procedure: as §1

human MC4R = molecular target: T3, human MC4R (human, UniProt P32245 1-332); assay: competitive binding vs 125I-NDP-α-MSH on whole HEK293 cells overexpressing human MC4R
T3 construct: whole, on cells
Procedure: as §1

human MC5R = molecular target: T4, human MC5R (human, UniProt P33032 1-325); assay: competitive binding vs 125I-NDP-α-MSH on whole HEK293 cells overexpressing human MC5R
T4 construct: whole, on cells
T4 sequence (P33032 whole entry): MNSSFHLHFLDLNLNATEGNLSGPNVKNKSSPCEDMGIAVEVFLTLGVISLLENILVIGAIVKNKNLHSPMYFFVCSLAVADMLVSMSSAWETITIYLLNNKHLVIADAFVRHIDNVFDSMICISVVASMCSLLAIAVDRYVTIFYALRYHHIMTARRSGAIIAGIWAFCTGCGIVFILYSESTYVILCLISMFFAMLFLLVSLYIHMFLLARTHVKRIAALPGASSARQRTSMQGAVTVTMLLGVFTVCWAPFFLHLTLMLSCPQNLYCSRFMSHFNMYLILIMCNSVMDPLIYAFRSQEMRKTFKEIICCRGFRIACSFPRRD
Procedure: as §1

T1 sequence (Q01726 whole entry): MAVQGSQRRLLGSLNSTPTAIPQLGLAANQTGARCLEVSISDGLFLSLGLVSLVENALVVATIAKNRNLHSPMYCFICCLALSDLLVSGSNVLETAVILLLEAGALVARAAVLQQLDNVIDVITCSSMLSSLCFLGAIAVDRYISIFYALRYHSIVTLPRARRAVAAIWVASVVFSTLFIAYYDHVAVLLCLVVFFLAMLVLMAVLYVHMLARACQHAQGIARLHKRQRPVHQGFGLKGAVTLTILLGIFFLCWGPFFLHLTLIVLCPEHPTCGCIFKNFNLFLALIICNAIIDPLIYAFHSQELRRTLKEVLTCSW
T2 sequence (P41968 whole entry): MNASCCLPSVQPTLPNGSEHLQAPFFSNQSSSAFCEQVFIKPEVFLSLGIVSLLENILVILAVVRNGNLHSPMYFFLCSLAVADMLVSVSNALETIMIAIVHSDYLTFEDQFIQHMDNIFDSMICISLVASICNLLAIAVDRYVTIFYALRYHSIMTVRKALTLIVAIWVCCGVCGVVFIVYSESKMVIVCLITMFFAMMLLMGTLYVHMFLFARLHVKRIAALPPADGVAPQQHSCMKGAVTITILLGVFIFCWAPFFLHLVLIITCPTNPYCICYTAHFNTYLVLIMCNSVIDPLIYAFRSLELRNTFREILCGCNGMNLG
T3 sequence (P32245 whole entry): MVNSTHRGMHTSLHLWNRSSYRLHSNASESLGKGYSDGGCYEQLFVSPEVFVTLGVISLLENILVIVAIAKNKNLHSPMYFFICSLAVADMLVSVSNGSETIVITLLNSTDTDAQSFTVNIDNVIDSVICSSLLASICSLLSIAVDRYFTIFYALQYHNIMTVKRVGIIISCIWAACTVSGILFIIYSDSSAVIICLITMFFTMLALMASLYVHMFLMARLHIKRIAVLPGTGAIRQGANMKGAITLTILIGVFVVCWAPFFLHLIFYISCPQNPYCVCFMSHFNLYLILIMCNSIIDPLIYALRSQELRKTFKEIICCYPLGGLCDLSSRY

Row | Binder | Ki [1] | Ki (human MC3R) | Ki (human MC4R) | Ki (human MC5R)
1 | B1 | 57 nM | 300 nM | 173 nM | 194 nM
2 | B2 | 172 nM | – | – | –
